From patent US9969998B2, “Compositions of adenosine deaminase-2 (ADA2), variants thereof and methods of using same” (Halozyme, Inc., priority 2014, dated 2018)

B1: K374D/C108-T150del→(GGGGS)2 (protein)
chain: IDETRAHLLLKEKMMRLGGRLVLNTKEELANERLMTLKIAEMKEAMRTLIFPPSMHFFQAKHLIERSQVFNILRMMPKGAALHLHDIGIVTMDWLVRNVTYRPHGGGGSGGGGSEFDDSLLRNFTLVTQHPEVIYTNQNVVWSKFETIFFTISGLIHYAPVFRDYVFRSMQEFYEDNVLYMEIRARLLPVYELSGEHHDEEWSVKTYQEVAQKFVETHPEFIGIKIIYSDHRSKDVAVIAESIRMAMGLRIKFPTVVAGFDLVGHEDTGHSLHDYKEALMIPAKDGVKLPYFFHAGETDWQGTSIDRNILDALMLNTTRIGHGFALSKHPAVRTYSWDKDIPIEVCPISNQVLKLVSDLRNHPVATLMATGHPMVISSDDPAMFGAKGLSYDFYEVFMGIGGMKADLRTLKQLAMNSIKYSTLLESEKNTFMEIWKKRWDKFIADVATK
modifications: C108-T150 replaced by (GGGGS)2; human ADA2 K371D/C105-T147del->(GGGGS)2, mature numbering
B2: K374D/C108-T150del→(GGGGS)3 (protein)
chain: IDETRAHLLLKEKMMRLGGRLVLNTKEELANERLMTLKIAEMKEAMRTLIFPPSMHFFQAKHLIERSQVFNILRMMPKGAALHLHDIGIVTMDWLVRNVTYRPHGGGGSGGGGSGGGGSEFDDSLLRNFTLVTQHPEVIYTNQNVVWSKFETIFFTISGLIHYAPVFRDYVFRSMQEFYEDNVLYMEIRARLLPVYELSGEHHDEEWSVKTYQEVAQKFVETHPEFIGIKIIYSDHRSKDVAVIAESIRMAMGLRIKFPTVVAGFDLVGHEDTGHSLHDYKEALMIPAKDGVKLPYFFHAGETDWQGTSIDRNILDALMLNTTRIGHGFALSKHPAVRTYSWDKDIPIEVCPISNQVLKLVSDLRNHPVATLMATGHPMVISSDDPAMFGAKGLSYDFYEVFMGIGGMKADLRTLKQLAMNSIKYSTLLESEKNTFMEIWKKRWDKFIADVATK
modifications: C108-T150 replaced by (GGGGS)3; human ADA2 K371D/C105-T147del->(GGGGS)3, mature numbering
B3: K374D/V102-Q147del→(GGGGS)2 (protein)
chain: IDETRAHLLLKEKMMRLGGRLVLNTKEELANERLMTLKIAEMKEAMRTLIFPPSMHFFQAKHLIERSQVFNILRMMPKGAALHLHDIGIVTMDWLVRNGGGGSGGGGSNVTEFDDSLLRNFTLVTQHPEVIYTNQNVVWSKFETIFFTISGLIHYAPVFRDYVFRSMQEFYEDNVLYMEIRARLLPVYELSGEHHDEEWSVKTYQEVAQKFVETHPEFIGIKIIYSDHRSKDVAVIAESIRMAMGLRIKFPTVVAGFDLVGHEDTGHSLHDYKEALMIPAKDGVKLPYFFHAGETDWQGTSIDRNILDALMLNTTRIGHGFALSKHPAVRTYSWDKDIPIEVCPISNQVLKLVSDLRNHPVATLMATGHPMVISSDDPAMFGAKGLSYDFYEVFMGIGGMKADLRTLKQLAMNSIKYSTLLESEKNTFMEIWKKRWDKFIADVATK
modifications: V102-Q147 replaced by (GGGGS)2; human ADA2 K371D/V99-Q144del->(GGGGS)2, mature numbering
B4: K374D/C108-T150del→(GGGGS)1 (protein)
chain: IDETRAHLLLKEKMMRLGGRLVLNTKEELANERLMTLKIAEMKEAMRTLIFPPSMHFFQAKHLIERSQVFNILRMMPKGAALHLHDIGIVTMDWLVRNVTYRPHGGGGSEFDDSLLRNFTLVTQHPEVIYTNQNVVWSKFETIFFTISGLIHYAPVFRDYVFRSMQEFYEDNVLYMEIRARLLPVYELSGEHHDEEWSVKTYQEVAQKFVETHPEFIGIKIIYSDHRSKDVAVIAESIRMAMGLRIKFPTVVAGFDLVGHEDTGHSLHDYKEALMIPAKDGVKLPYFFHAGETDWQGTSIDRNILDALMLNTTRIGHGFALSKHPAVRTYSWDKDIPIEVCPISNQVLKLVSDLRNHPVATLMATGHPMVISSDDPAMFGAKGLSYDFYEVFMGIGGMKADLRTLKQLAMNSIKYSTLLESEKNTFMEIWKKRWDKFIADVATK
modifications: C108-T150 replaced by GGGGS linker; human ADA2 K371D/C105-T147del->(GGGGS)1, mature numbering
B5: R222Q/S265N/K374D/R23E: ADA2 combination variant SEQ ID NO:272 (protein)
chain: IDETRAHLLLKEKMMRLGGELVLNTKEELANERLMTLKIAEMKEAMRTLIFPPSMHFFQAKHLIERSQVFNILRMMPKGAALHLHDIGIVTMDWLVRNVTYRPHCHICFTPRGIMQFRFAHPTPRPSEKCSKWILLEDYRKRVQNVTEFDDSLLRNFTLVTQHPEVIYTNQNVVWSKFETIFFTISGLIHYAPVFRDYVFRSMQEFYEDNVLYMEIRAQLLPVYELSGEHHDEEWSVKTYQEVAQKFVETHPEFIGIKIIYNDHRSKDVAVIAESIRMAMGLRIKFPTVVAGFDLVGHEDTGHSLHDYKEALMIPAKDGVKLPYFFHAGETDWQGTSIDRNILDALMLNTTRIGHGFALSKHPAVRTYSWDKDIPIEVCPISNQVLKLVSDLRNHPVATLMATGHPMVISSDDPAMFGAKGLSYDFYEVFMGIGGMKADLRTLKQLAMNSIKYSTLLESEKNTFMEIWKKRWDKFIADVATK
modifications: human ADA2 R219Q/S262N/K371D/R20E, mature numbering
B6: K374D/V102-Q147del→(GGGGS)1 (protein)
chain: IDETRAHLLLKEKMMRLGGRLVLNTKEELANERLMTLKIAEMKEAMRTLIFPPSMHFFQAKHLIERSQVFNILRMMPKGAALHLHDIGIVTMDWLVRNGGGGSNVTEFDDSLLRNFTLVTQHPEVIYTNQNVVWSKFETIFFTISGLIHYAPVFRDYVFRSMQEFYEDNVLYMEIRARLLPVYELSGEHHDEEWSVKTYQEVAQKFVETHPEFIGIKIIYSDHRSKDVAVIAESIRMAMGLRIKFPTVVAGFDLVGHEDTGHSLHDYKEALMIPAKDGVKLPYFFHAGETDWQGTSIDRNILDALMLNTTRIGHGFALSKHPAVRTYSWDKDIPIEVCPISNQVLKLVSDLRNHPVATLMATGHPMVISSDDPAMFGAKGLSYDFYEVFMGIGGMKADLRTLKQLAMNSIKYSTLLESEKNTFMEIWKKRWDKFIADVATK
modifications: V102-Q147 replaced by (GGGGS)1; human ADA2 K371D/V99-Q144del->(GGGGS)1, mature numbering
B7: K374D/V102-Q147del→(GGGGS)3 (protein)
chain: IDETRAHLLLKEKMMRLGGRLVLNTKEELANERLMTLKIAEMKEAMRTLIFPPSMHFFQAKHLIERSQVFNILRMMPKGAALHLHDIGIVTMDWLVRNGGGGSGGGGSGGGGSNVTEFDDSLLRNFTLVTQHPEVIYTNQNVVWSKFETIFFTISGLIHYAPVFRDYVFRSMQEFYEDNVLYMEIRARLLPVYELSGEHHDEEWSVKTYQEVAQKFVETHPEFIGIKIIYSDHRSKDVAVIAESIRMAMGLRIKFPTVVAGFDLVGHEDTGHSLHDYKEALMIPAKDGVKLPYFFHAGETDWQGTSIDRNILDALMLNTTRIGHGFALSKHPAVRTYSWDKDIPIEVCPISNQVLKLVSDLRNHPVATLMATGHPMVISSDDPAMFGAKGLSYDFYEVFMGIGGMKADLRTLKQLAMNSIKYSTLLESEKNTFMEIWKKRWDKFIADVATK
modifications: (GGGGS)3 linker replaces deleted region; human ADA2 K371D/V99-Q144del->(GGGGS)3, mature numbering

Assay: Kinetic assessment of adenosine deaminase activity (ammonia assay, Michaelis-Menten)
Type: biochemical
Settings: [E] = 8.5 nM
Method: Adenosine deaminase activity was determined by the measurement of ammonia released from adenosine when broken down to inosine. Ammonia was measured using a commercially available Ammonia Assay kit (Cat. No. AA0100, Sigma-Aldrich, St. Louis, Mo.). The kit contains dry reagents containing α-ketoglutaric acid and NADPH, which were reconstituted with 5 mL water prior to use in the assay. Ammonia reacts with α-ketogluaric acid (KGA) and reduced nicotinamide adenine dinucleotide phosphate (NADPH) in the presence of L-glutamate dehydrogenase (GDH).
Kinetics parameters of rHuADA2 WT and variants were compared using this assay at different adenosine concentrations at pH 7.6 and 6.5. Adenosine concentrations ranging from 20 μM to 20 mM were used. Sub-molar concentration of adenosine stock was prepared in 1N NaOH.
For the enzymatic assays at pH 7.6, adenosine was serially diluted with 100 mM sodium acetate (NaOAc), pH 4.9. A 2× reaction mixture was prepared, containing reconstituted ammonia assay reagent (containing about 4 mM α-ketoglutarate and about 300 μM NADPH), WT rHuADA2 or variants at 1 μg/mL (17 nM) and glutamate dehydrogenase (GDH, 1:50 dilution). 85 μL of adenosine was added to 85 μL 2× mixture in duplicate in a UV-transparent half-area plate. The change in absorbance (ΔA) at 340 nm over time at room temperature was monitored.
For the enzymatic assay at pH 6.5, adenosine was serially diluted with 200 mM piperazine-N,N′-bis(2-ethanesulfonic acid) (PIPES), pH 6.5. A 2× reaction mixture in 200 mM PIPES, pH 6.5 was prepared, containing 4 mM α-ketoglutarate, 300 μM NADPH, 1 μg/mL (17 nM) rHuADA2 or variants and 50 U/mL GDH (Cat No. G2626, Sigma-Aldrich). The enzymatic reaction was initiated by adding equal volume of adenosine to the 2× mixture in a UV-transparent half-area plate as described above, and the change in absorbance (AA) at 340 nm over time at room temperature was monitored.
Adenosine deaminase activity in mU/mL (μM/min equivalent) was calculated using the following formula: 1 mU/mL=−(−ΔA/min×Tv)/(Sv×ϵ×1) • where Tv=total volume (170 μL), Sv=sample volume (85 μL), ϵ=6.22×10^−3 μM^−1 cm^−1, 1=1 cm.
The activity data were fitted with non-linear regression of Michaelis-Menten equation using Graphpad Prism software to obtain Km and Vmax. Other kinetics parameters such as kcat and kcat/Km were also determined.

| Molecule | Km (pH 7.6) | Vmax (pH 7.6) | kcat (pH 7.6) | Km (pH 6.5) | Vmax (pH 6.5) | kcat (pH 6.5, kcat=Vmax/0.0085/60) | kcat (pH 7.6, kcat=Vmax/0.0085/60) |
| --- | --- | --- | --- | --- | --- | --- | --- |
| B1 | 850 µM | 36.92 µM/min | 72.39 s⁻¹ |  |  |  |  |
| B2 | 770 µM | 38.12 µM/min | 74.75 s⁻¹ |  |  |  |  |
| B3 | 870 µM | 44.52 µM/min | 87.29 s⁻¹ |  |  |  |  |
| B4 | 910 µM | 43.1 µM/min | 84.51 s⁻¹ |  |  |  |  |
| B5 | 1230 µM | 72.58 µM/min |  | 810 µM | 45.78 µM/min | 89.76 s⁻¹ | 142.31 s⁻¹ |
| B6 | 890 µM | 43.46 µM/min | 85.22 s⁻¹ |  |  |  |  |
| B7 | 820 µM | 43.01 µM/min | 84.33 s⁻¹ |  |  |  |  |
